Experimental findings from IntAct's records for PubMed 18606998 are described below.

Sequences and labels used below:
B1: Transient receptor potential cation channel subfamily V member 5 (Oryctolagus cuniculus (Rabbit)), Q9XSM3 (parent)
chain: MGACPPKAKGPWAQLQKLLISWPVGEQDWEQYRDRVNMLQQERIRDSPLLQAAKENDLRLLKILLLNQSCDFQQRGAVGETALHVAALYDNLEAATLLMEAAPELAKEPALCEPFVGQTALHIAVMNQNLNLVRALLARGASVSARATGAAFRRSPHNLIYYGEHPLSFAACVGSEEIVRLLIEHGADIRAQDSLGNTVLHILILQPNKTFACQMYNLLLSYDEHSDHLQSLELVPNHQGLTPFKLAGVEGNTVMFQHLMQKRKHVQWTCGPLTSTLYDLTEIDSWGEELSFLELVVSSKKREARQILEQTPVKELVSFKWKKYGRPYFCVLASLYILYMICFTTCCIYRPLKLRDDNRTDPRDITILQQKLLQEAYVTHQDNIRLVGELVTVTGAVIILLLEIPDIFRVGASRYFGQTILGGPFHVIIITYASLVLLTMVMRLTNMNGEVVPLSFALVLGWCSVMYFARGFQMLGPFTIMIQKMIFGDLMRFCWLMAVVILGFASAFHITFQTEDPNNLGEFSDYPTALFSTFELFLTIIDGPANYSVDLPFMYCITYAAFAIIATLLMLNLFIAMMGDTHWRVAQERDELWRAQVVATTVMLERKMPRFLWPRSGICGYEYGLGDRWFLRVENHHDQNPLRVLRYVEAFKCSDKEDGQEQLSEKRPSTVESGMLSRASVAFQTPSLSRTTSQSSNSHRGWEILRRNTLGHLNLGLDLGEGDGEEVYHF

In this assay the parent is B1. As to conditions: with leg1_human LGALS1, P09382.
Chain of leg1_human LGALS1, P09382 (P09382 whole entry): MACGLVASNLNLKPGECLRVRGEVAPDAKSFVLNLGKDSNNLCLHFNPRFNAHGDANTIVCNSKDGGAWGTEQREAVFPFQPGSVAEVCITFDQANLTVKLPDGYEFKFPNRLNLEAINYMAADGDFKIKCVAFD
Turning to N358Q, the “effect of a mutation on the interaction” value is recorded as “disrupting interaction”.
